# Measurements taken from PMC9519731, “The soluble form of CD160 acts as a tumor mediator of immune escape in melanoma” (Cancer Immunology, Immunotherapy : CII, 2022).
# Target: the molecule itself
# Experiment: immunoprecipitation, non-reducing SDS-PAGE and Western blot; culture supernatants of confluent melanoma cell lines immunoprecipitated with H3 mAb, SDS-10% PAGE under non-reducing condition, blot with HRP-coupled H3 mAb
protein,measurement,value
"soluble form of CD160 (sCD160) released by melanoma cell lines (natural protein, UniProt O95971 25-159, looked up, soluble form of CD160, derived from the CD160-GPI isoform, released by human melanoma cell lines; recovered as a 55-kDa species called dimeric sCD160; also called secreted sCD160; sCD160 produced by WM1361; source: endogenous, culture supernatant of melanoma cell lines (WM1361, COLO829, SKMEL5)) GCINITSSASQEGTRLNLICTVWHKKEEAEGFVVFLCKDRSGDCSPETSLKQLRLKRDPGIDGVGEISSQLMFTISQVTPLHSGTYQCCARSQKSGIRLQGHFFSILFTETGNYTVTGLKQRQHLEFSHNEGTLS",stoichiometry N,2
